Data from paper doi:10.1101/2020.01.06.896597 (bioRxiv, 2020).

B1: ACAT1-ΔNTD (domain or fragment, human, UniProt P35610 111-550, looked up)
chain: DLRAPPEQGKIFIARRSLLDELLEVDHIRTIYHMFIALLILFILSTLVVDYIDEGRLVLEFSLLSYAFGKFPTVVWTWWIMFLSTFSVPYFLFQHWATGYSKSSHPLIRSLFHGFLFMIFQIGVLGFGPTYVVLAYTLPPASRFIIIFEQIRFVMKAHSFVRENVPRVLNSAKEKSSTVPIPTVNQYLYFLFAPTLIYRDSYPRNPTVRWGYVAMKFAQVFGCFFYVYYIFERLCAPLFRNIKQEPFSARVLVLCVFNSILPGVLILFLTFFAFLHCWLNAFAEMLRFGDRMFYKDWWNSTSYSNYYRTWNVVVHDWLYYYAYKDFLWFFSKRFKSAAMLAVFAVSAVVHEYALAVCLSFFYPVLFVLFMFFGMAFNFIVNDSRKKPIWNVLMWTSLFLGNGVLLCFYSQEWYARQHCPLKNPTFLDYVRPRSWTCRYVF
B2: full-length (FL) human ACAT1 (enzyme, UniProt P35610 1-550, looked up)
chain: MVGEEKMSLRNRLSKSRENPEEDEDQRNPAKESLETPSNGRIDIKQLIAKKIKLTAEAEELKPFFMKEVGSHFDDFVTNLIEKSASLDNGGCALTTFSVLEGEKNNHRAKDLRAPPEQGKIFIARRSLLDELLEVDHIRTIYHMFIALLILFILSTLVVDYIDEGRLVLEFSLLSYAFGKFPTVVWTWWIMFLSTFSVPYFLFQHWATGYSKSSHPLIRSLFHGFLFMIFQIGVLGFGPTYVVLAYTLPPASRFIIIFEQIRFVMKAHSFVRENVPRVLNSAKEKSSTVPIPTVNQYLYFLFAPTLIYRDSYPRNPTVRWGYVAMKFAQVFGCFFYVYYIFERLCAPLFRNIKQEPFSARVLVLCVFNSILPGVLILFLTFFAFLHCWLNAFAEMLRFGDRMFYKDWWNSTSYSNYYRTWNVVVHDWLYYYAYKDFLWFFSKRFKSAAMLAVFAVSAVVHEYALAVCLSFFYPVLFVLFMFFGMAFNFIVNDSRKKPIWNVLMWTSLFLGNGVLLCFYSQEWYARQHCPLKNPTFLDYVRPRSWTCRYVF

Key:
[1] = target: the molecule itself; assay: cryo-EM 2D class averages
cryo-EM structure = target: the molecule itself; assay: cryo-EM structure

Protein | stoichiometry N [1] | stoichiometry N (cryo-EM structure)
B1 | 2 | 
B2 |  | 4
